Results on 2 substances are retold here after patent US20260194525A1.

Assay [1] addresses commercially available recombinant antigen CEACAM1 (R&D Systems) (UniProt P13688). In words: ELISA on CEACAM1 coated in PBS; antibody 0.1 ug/mL with against without 10 ug/mL competitor polyclonal AF2244. On the technique in general: An ELISA detects its analyte on a solid surface through an enzyme-linked reagent.
For assay [2], the target named is CEACAM1 in a cancer specimen having a high value of CEACAM1 (human) (UniProt P13688). Nature of the assay: CLEIA sandwich without denaturation: 283324 on magnetic particles, biotin-labeled BAF2244 as detector; competitor AF2244 30 ug/mL added to a cancer specimen (FIG. 12).

For the substance “biotin-labeled anti-CEACAM1 antibody BAF2244 (R&D Systems)”, the binding rate by addition of anti-CEACAM1 polyclonal antibody in assay [1] stood at 44.8%. The substance “anti-CEACAM1 antibody 283324 (R&D Systems)” gave a quantitative value with the polyclonal antibody added (+) against not added (-) in assay [2] of 3%. Besides, the binding rate by addition of anti-CEACAM1 polyclonal antibody in assay [1] was 41%.
